Results on 61 substances are retold here after patent US10227388B2, “Peptides and combination of peptides for use in immunotherapy against non-small cell lung cancer and other cancers” (immatics biotechnologies GmbH, priority 2015, dated 2019).

The assay has as its target HLA-A*02:01 (Homo sapiens, UniProt P04439, D140Y/D185E/D98H/E176V/E277Q/G131W/G231S/I119V/I121R/I166T/I218V/L300P/L318F/N151K/N90K/P208A/P217A/Q86G/Q94H/R138H/R169H/T345S). The experiment in a line: MHC binding assay (UV-ligand exchange, ELISA, peptide exchange yield). The following applies: binding of HLA-class I restricted peptides to HLA-A*02:01. The gist of the method:
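Exchange yield was quantified as stabilized β2m-containing complex: monomers diluted 100-fold bound to streptavidin-coated wells, probed with HRP-conjugated anti-β2m, read at 450 nm after TMB. Complexes had been generated by UV cleavage of a photolabile ligand and replacement with the candidate peptide.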
On to “364 (LLQNEQFEL; listed as Homo sapiens) [compound 364]”, for which the “Peptide exchange (MHC class I binding score, peptide exchange yield)” value (shortened to “Peptide exchange”) is “″+++″ (≥50% = +++)”.

As for “365 (YVIDQGETDVYV; listed as Homo sapiens) [compound 365]”, the “Peptide exchange” value is “″+++″ (≥50% = +++)”.

On to “366 (RLLDMGETDLML; listed as Homo sapiens) [compound 366]”, for which the “Peptide exchange” value was “″+++″ (≥50% = +++)”.

For the substance “367 (SLQNHNHQL; listed as Homo sapiens) [compound 367]”, the “Peptide exchange” value was “″+++″ (≥50% = +++)”.

As for “369 (GLFPEHLIDV; listed as Homo sapiens) [compound 369]”, the “Peptide exchange” value is on record as “″+++″ (≥50% = +++)”.

For “370 (SLLQDLVSV; listed as Homo sapiens) [compound 370]”, the “Peptide exchange” value is recorded as “″+++″ (≥50% = +++)”.

For the substance “371 (FLQAHLHTA; listed as Homo sapiens) [compound 371]”, the “Peptide exchange” value was “″++++″ (≥75% = ++++)”.

With “372 (TMLLNIPLV; listed as Homo sapiens) [compound 372]”, the “Peptide exchange” value is “″++″ (≥20% = ++)”.

In the case of “373 (SLLEDKGLAEV; listed as Homo sapiens) [compound 373]”, the “Peptide exchange” value was “″++″ (≥20% = ++)”.

In the case of “374 (FLLQQHLISA; listed as Homo sapiens) [compound 374]”, the “Peptide exchange” value is “″++″ (≥20% = ++)”.

Take “375 (SLTETIEGV; listed as Homo sapiens) [compound 375]”: the “Peptide exchange” value was “″++″ (≥20% = ++)”.

On to “376 (AMFESSQNVLL; listed as Homo sapiens) [compound 376]”, for which the “Peptide exchange” value is reported as “″++″ (≥20% = ++)”.

For the substance “377 (FLLDSSASV; listed as Homo sapiens) [compound 377]”, the “Peptide exchange” value is “″++″ (≥20% = ++)”.

Regarding “378 (ALGYFVPYV; listed as Homo sapiens) [compound 378]”, the “Peptide exchange” value is on record as “″+++″ (≥50% = +++)”.

As to “379 (IMEGTLTRV; listed as Homo sapiens) [compound 379]”, the “Peptide exchange” value is given as “″++″ (≥20% = ++)”.

As to “380 (TLIEDEIATI; listed as Homo sapiens) [compound 380]”, the “Peptide exchange” value was “″++″ (≥20% = ++)”.

Take “381 (FIDEAYVEV; listed as Homo sapiens) [compound 381]”: the “Peptide exchange” value is recorded as “″++″ (≥20% = ++)”.

In the case of “382 (ALQNYIKEA; listed as Homo sapiens) [compound 382]”, the “Peptide exchange” value is “″++″ (≥20% = ++)”.

Regarding “383 (ALLELENSVTL; listed as Homo sapiens) [compound 383]”, the “Peptide exchange” value is given as “″+++″ (≥50% = +++)”.

On to “385 (SLLEQGLVEA; listed as Homo sapiens) [compound 385]”, for which the “Peptide exchange” value is “″++″ (≥20% = ++)”.

As for “386 (ILFRYPLTI; listed as Homo sapiens) [compound 386]”, the “Peptide exchange” value was “″+++″ (≥50% = +++)”.

Turning to “387 (ALFQATAEV; listed as Homo sapiens) [compound 387]”, the “Peptide exchange” value was “″++++″ (≥75% = ++++)”.

Consider “388 (SLTIDGIRYV; listed as Homo sapiens) [compound 388]”, for which the “Peptide exchange” value is on record as “″+++″ (≥50% = +++)”.

Regarding “389 (LLADVTHLL; listed as Homo sapiens) [compound 389]”, the “Peptide exchange” value is “″++″ (≥20% = ++)”.

Consider “390 (ALFMKQIYL; listed as Homo sapiens) [compound 390]”, for which the “Peptide exchange” value is given as “″+++″ (≥50% = +++)”.

For the substance “391 (YVYPQRLNFV; listed as Homo sapiens) [compound 391]”, the “Peptide exchange” value was “″+++″ (≥50% = +++)”.

For “392 (ALLHPQGFEV; listed as Homo sapiens) [compound 392]”, the “Peptide exchange” value is listed as “″++″ (≥20% = ++)”.

With “393 (GLLDTQTSQVLTA; listed as Homo sapiens) [compound 393]”, the “Peptide exchange” value was “″++″ (≥20% = ++)”.

In the case of “394 (LLAVIGGLVYL; listed as Homo sapiens) [compound 394]”, the “Peptide exchange” value was “″+++″ (≥50% = +++)”.

Consider “395 (ALALGGIAVV; listed as Homo sapiens) [compound 395]”, for which the “Peptide exchange” value is “″++++″ (≥75% = ++++)”.

With “396 (ALLPDLPAL; listed as Homo sapiens) [compound 396]”, the “Peptide exchange” value is given as “″+++″ (≥50% = +++)”.

As to “397 (YLFGERLLEC; listed as Homo sapiens) [compound 397]”, the “Peptide exchange” value is “″+++″ (≥50% = +++)”.

Regarding “398 (KLLEEDGTIITL; listed as Homo sapiens) [compound 398]”, the “Peptide exchange” value is given as “″++″ (≥20% = ++)”.

For the substance “399 (YLFEPLYHV; listed as Homo sapiens) [compound 399]”, the “Peptide exchange” value is given as “″+++″ (≥50% = +++)”.

In the case of “400 (SLLTEQDLWTV; listed as Homo sapiens) [compound 400]”, the “Peptide exchange” value is on record as “″++″ (≥20% = ++)”.

With “401 (ILLDDTGLAYI; listed as Homo sapiens) [compound 401]”, the “Peptide exchange” value is recorded as “″+++″ (≥50% = +++)”.

Turning to “402 (VLFSGALLGL; listed as Homo sapiens) [compound 402]”, the “Peptide exchange” value is listed as “″++″ (≥20% = ++)”.

“403 (KLYDRILRV; listed as Homo sapiens) [compound 403]”: the “Peptide exchange” value was “″++″ (≥20% = ++)”.

Regarding “405 (ALYDVFLEV; listed as Homo sapiens) [compound 405]”, the “Peptide exchange” value was “″++″ (≥20% = ++)”.

On to “407 (YLMDLINFL; listed as Homo sapiens) [compound 407]”, for which the “Peptide exchange” value was “″+++″ (≥50% = +++)”.

Regarding “408 (VLDDSIYLV; listed as Homo sapiens) [compound 408]”, the “Peptide exchange” value is “″++″ (≥20% = ++)”.

In the case of “409 (LLDAMNYHL; listed as Homo sapiens) [compound 409]”, the “Peptide exchange” value is listed as “″++″ (≥20% = ++)”.

For “412 (YLDDLNEGVYI; listed as Homo sapiens) [compound 412]”, the “Peptide exchange” value was “″++″ (≥20% = ++)”.

Regarding “426 (RLADKSVLV; listed as Homo sapiens) [compound 426]”, the “Peptide exchange” value was “″+++″ (≥50% = +++)”.

In the case of “427 (ALLPLSPYL; listed as Homo sapiens) [compound 427]”, the “Peptide exchange” value is listed as “″+++″ (≥50% = +++)”.

For the substance “428 (KLGHTDILVGV; listed as Homo sapiens) [compound 428]”, the “Peptide exchange” value is reported as “″++″ (≥20% = ++)”.

Turning to “429 (GLVNDLARV; listed as Homo sapiens) [compound 429]”, the “Peptide exchange” value is reported as “″++″ (≥20% = ++)”.

“430 (HLYSSIEHLTT; listed as Homo sapiens) [compound 430]”: the “Peptide exchange” value is given as “″+++″ (≥50% = +++)”.

As to “431 (SLVNVVPKL; listed as Homo sapiens) [compound 431]”, the “Peptide exchange” value is recorded as “″++″ (≥20% = ++)”.

Consider “432 (TLIEESAKV; listed as Homo sapiens) [compound 432]”, for which the “Peptide exchange” value was “″++″ (≥20% = ++)”.

With “433 (AMLNEPWAV; listed as Homo sapiens) [compound 433]”, the “Peptide exchange” value is reported as “″+++″ (≥50% = +++)”.

Consider “434 (KVSNSGITRV; listed as Homo sapiens) [compound 434]”, for which the “Peptide exchange” value was “″++″ (≥20% = ++)”.

For “436 (HLAEVSAEV; listed as Homo sapiens) [compound 436]”, the “Peptide exchange” value is “″+++″ (≥50% = +++)”.

For the substance “437 (SMAPGLVIQAV; listed as Homo sapiens) [compound 437]”, the “Peptide exchange” value is given as “″+++″ (≥50% = +++)”.

Turning to “438 (KLLPLAGLYL; listed as Homo sapiens) [compound 438]”, the “Peptide exchange” value was “″++++″ (≥75% = ++++)”.

On to “439 (YLLQEIYGI; listed as Homo sapiens) [compound 439]”, for which the “Peptide exchange” value is listed as “″+++″ (≥50% = +++)”.

For “440 (ALADGVTMQV; listed as Homo sapiens) [compound 440]”, the “Peptide exchange” value is on record as “″++″ (≥20% = ++)”.

With “441 (ALLENPKMEL; listed as Homo sapiens) [compound 441]”, the “Peptide exchange” value is on record as “″+++″ (≥50% = +++)”.

As to “442 (GLLGGGGVLGV; listed as Homo sapiens) [compound 442]”, the “Peptide exchange” value is given as “″+++″ (≥50% = +++)”.

On to “444 (GLLRDEALAEV; listed as Homo sapiens) [compound 444]”, for which the “Peptide exchange” value is listed as “″+++″ (≥50% = +++)”.

Take “446 (QLIPALAKV; listed as Homo sapiens) [compound 446]”: the “Peptide exchange” value is given as “″+++″ (≥50% = +++)”.
